Assay results: the DeepSol protein solubility set

assay: soluble on expression in E. coli; label from the status in PepcDB or PDB records

Row | Sequence | soluble on expression in E. coli
1 | MGSDKIHHHHHHMERIVDTADGRFDTRLTGTGNVTFILDHGMMSSHYQWGWLRGELLKQGRVFEYSRLGYGRSTRGKTKRLFTRQADELERVLALLDIKGPFVFIGHSLGAYISLELGRRRPDETAGIVLLDPSHPEVDAELPNWYERTQEEWNRFLYVLSHVRPLAWLIPDDLGARMFTSLPEADRIPMWRNMARKNHWRGTLDEWQAVEANNQHVLEVVEHIVPPVLVLSASDWAGGMPENWLNPELTKRINAAHERFAASLPDAAFHVIPNTNHYTIAGFSEEAATTIVSLIRNAFFK | not soluble
2 | MGSDKIHHHHHHMERPTGVYFQTMTMKQIRERLKQCDLIIIPVGSTENHGPNAPTGEDTFLVTRMAEQVALKTGCTVAEPIWYGYHPYHHIGMPGTVPVKDEAFIDYLVSVIAGFWNTGFRKQILLNGHGQEFVIPIAIHKFAKIFQVPAIIINLNWYHAIQDKFKTKEEGGPYETPFIHADEVETSWSLALFPEFMHQEWAVDTEPKGFLPEGHIDKAGNLLHRPIAWYGHVGGGPIEVVAYPEGVVGKATLASAEKAKEGVEALLDYLEKLVRDIMERFPAGKLPPAEMLSQRPKEELEALTKEPLTEGWRNLYTAGNLWG | not soluble
3 | MGSDKIHHHHHHMETITKKANLSLLELPSGGEESLFCRLYSPALAGPAPLIVLFHGFPGKQLNMDWAVQLQNLSFHVLVTSYRGTIGSPGAFRFRHVLEDATAIMQHVVSPEFTQAHDISADQISIVGHSMGGFAGLHAFIDVPDIAHYIGISPFNFGLIGQLVLDYPEHEEALQGVLSRGAQFLSHTDGDILLDELKRHHATWNLLSLKEQLGTRSALLVTSERDETSIKSLHHDLLQDASAFEQIIVDSDHNYIENREDAFRAWTTWLRRR | not soluble
4 | MGSDKIHHHHHHMETSEILKKVRQIEIKTRGLSNNIFAGQYHSAFKGRGMSFSEVREYQFGDDIRDIDWNVTARFNKPYVKVFEEERELTVMLMVDVSGSLEFGTVKQLKKDMVTEIAATLAFSAIQNNDKIGVIFFSDRIEKFIPPKKGRKHILYIIRELIDFQPESRRTNIRLALEYLTNVMKRRCTAFILSDFIDQDNFKNALTIANRKHDVVALQVYDRRVSDLPPVGLMRIKDAETGHEQWIDTSSKAVRRAHRDWWINKQTELNDTFTKSNVDSVSVRTDQDYVKALLNLFAKRN | not soluble
5 | MGSDKIHHHHHHMEVSEFCLEGRFINFVIKDGYKLKGLMLGTHEGEFYIKLAKQLRAAFDLRLPPGTWLQVVGYKKHDLKDGTITLKAERVMAARSEMGRVQTTTPVQEPPSIHNVKVKPAKAKATILVCQKSDCMKRGGKAVCQALEAALSDRGLEDQVTIKGTGCMKNCKAGPNLVMPDKTRHSRIQAAQVPRLMDKHFGDKSLEAQPENLREVAITNGKLC | not soluble
6 | MGSDKIHHHHHHMFAGAWKNYRNILCVRPDNMGDVLMSQPAMRALKESVPGRKITLLTSTAGACIAPFIPEVDETIPFDVPWVKTTETNGAQRLLALAGELLALQLDAAVIFTVYSQNPLPAGMLCYLAGIKAVLGYCRENPYQLINQWVPDREPLDYVVHEVERQLRLVEMAGAKTSDTRLLLKIPEETRKEATDRVWEILNVAGIRAGMGWLVLHAGVSEEKRLYPARDYITACQSLIRQGYKILLTGSGSERDYVDQIARQLSDAAINVAGELSIAELIVLVEAAPVLISNNTGPVHIATAVGTPVVVLYAMTNPQHTPWQVPSKVLYFEVLPELRTKNQLLQSFPGSSTPRASPEAIVAAVGELVSPRRKHGSFIPSPLRNPVPTCNSLPDTALAACFTPHNEYGMCPPIRYGEDV | not soluble
7 | MGSDKIHHHHHHMFAPFAGETSRGEADMSGDLDQATMDRLFAKARTYSKFTKAPVSDDLLRQAWDLARMGPTSVNCQPMRVVFVRSSAAKERLKPALAPGNLDKTMAAPVTAIIAHDMEFYEQLPKLFPHADARAWFVGNEAMIQSTAFRNGTLQGAYFILALRAIGLDCGPMSGFDNAKLDEAFFKGTTLRSNFLVNIGHGDAAGLYPRGPRLDFDEACRVE | not soluble
8 | MGSDKIHHHHHHMFDDKMSGNAMNAEIELKLFFLPIYQESLINKLDSLDNAVPQGKRRLANGYFDTPDLQLRQWDMGLRVRGYDAHREQTIKTAGQVVGGIHSRPEYNVTIQADSPDLSLFPASIWPADADLAATQAQLTCIFHTDFYRRSWHVQIDNSVVEVALDIGEITANGQQEALCELEFELLSGDTEALLKLAMQVASVVPVRLGKASKAQRGYRLAGKAKPLDLTALEFLPLAEPRDSSTQDLTANCQILLETALERWQLLESMIAEESKPEACVALWWRMRACIRLLRMTLSQFELLNVTLSSRFMSIEKQLDFIEQAQALTALLGSQRGLFAKLGQHAQVKARLMAQLSEIHLTERLLSLWQQTEYGQLQLAIVEILLKVSAGEVDISNQPSLRQHADRAQQASWMAIVEVMPLNTVMTSANYLQVAAVLDESILVGHAYGSLYEAKSRDAFRAPWQDLVLGIKTLACYRAVQDASRELDIDLNEWLEDKQQSLLFAMESTRRNAMQQQAYW | not soluble
9 | MGSDKIHHHHHHMFEHRFKDLHHTYRAIREVESEHHNIANIIKYVHKNNRVRQPSVGSHIRLRKKWEVEKSTLHARLSWDLERMQVWQLEHLSKLVDFAYNYVPFYHALYHEAGFRTGDIVTWSDFEKLPIVDKKMLVDNRSALCASIGFAPDNHHVARTSGSSGINFTIVQDDTSVDTRVVLNLRQTEMMVGHALSPDDWRYGIYLASERFTSLAGGYPVITVGQDCPAVDVFEHIQKIKPKILYAFPSYLKRLQVCAGDLTEWGVECICTNSEPSTQEERQVFARHFGVPVLDEYSSEEFSLIATECRYGRYHIVEDNLKAEVCNIDPEGWGTLVGTSFANTYMPFIRYSQGDIVKLDARQILCECGTHFRYLDTFHGRADQFLESKNNGKIPPDKLMGLYDSTLILETSGVKEFQIVQTHLDKIEIRIVLMDKEGAYNYALMSNFVSGIKQLFSGDPLTVSVHVLESIPAAKSYKRRLIVNMINS | not soluble
10 | MGSDKIHHHHHHMFENEILFDNGQHKFMFLGWEEKEEEIVQTNQYLILDGNEGILLDPGGAHVFPRVMSNVAEVVDLSSIRHIFYTHQDPDVTSGILLWLSICENAKIYISSLWVRFLPHFGIYDQKRIVPISDKGTKIKLLSGNELEILPAHFLHSTGNFVLYDPVAKILFSGDIGAAVFEKGKRYRYVDDFERHLPLMEAFHKRYMSSNAACKKWVDMVSKKKIDMIAPQHGAVFRGESVKKFLEWFRNLKCGVDLIDNLYSL | not soluble
11 | MGSDKIHHHHHHMFKDEKTPDEYAEEARSDIAAGNYAEAIEKIDKAIDKEPRNPSLHLIRADALYRQGNYSSAIEELNFTEHMDKNNPELFSLKSICYGSMGDFKRSKEEADKAIKADQSYPFAYYNRAAALRGLGDVDGAEKDFRKYIEMQPSDPDPHYDLAEIYFEKKDYKKAMEEVKAVLRNDKSNEKAYDLKLQIHLATNDGEGYFKALLEAFKNTENFKYIGTLTDGLIGIGSYDTAEDILKQFIKVYEKEPYLYDLLARTYDQEGKAKEADETYNTLLRLNNSRESHIYWFDYLLDSGRYDDLLSEIEKSGFKDEEILEIEYIAQDASGKHEEALKTAGELVKMDQTPYSRSLYATQLRKLGKLEDALTYLGSGDQDSDEVQFEKFNILLEMGNHSLAMESLKNSITASDDDEERLGHLITGISSAISKADFNTVNNFLDGLKMPEEEENIAVYALKGIVSGIFESYSKGKDMLIGLDEDRDNVCDFASYLANLMQGKASEFLNKFIEENCKKPEE | not soluble
12 | MGSDKIHHHHHHMFRHFRSRFGTPAWAGVNEDDFLLVRSWFGHGRHHGRDRDKHFGNEMFGRGWGDEHRTRRGDIKFILLELLSEHPSHGYDLIKEMETRYGGFRRLSPGSVYPTLQLLEEGGYLKSAQEGGKRIYTITDEGRKLLAERAQQETSDTPWDTVKSFVTGKPQEFIELRNAATELAAVVVQVARSGNVERINRVRELLEQVKREIYTILAEK | not soluble
13 | MGSDKIHHHHHHMFRPKLLFTSLAALALGACSPQDPQAVTSAAIANQVILPTYSRWVEADRTLAASALAYCEGKESLDKARADFLNAQKAWAELQPLLVGPLAEGNRAWQVQFWPDKKNLVGRQVEQLVNGDKPVDAEALGKSSVVVRGLSAYEYILFDSKPDIATAEQKARYCPLLVAIGAHQKALAEEILKGWNSTDGMLSQMTKFPNQRYADSHEAIADLLRAQVTALDTLKKKLGAPMGRQSKGIPQPLQAEAWRSHNSMNSLQASLKAAEAVWVGVDNQGLRGLLPSDQKALADKIDAAYATSLKLLADNQKTLGELLADDAGQQTLNQIYDSLNVVHRLHEGDLAKALNIQLGFNANDGD | not soluble
14 | MGSDKIHHHHHHMFSDFKKDFCLANPGYLLSHSVGRPLKSTEQVFKEAFFAPWQDSGREPWGQWLSVIDDFTFALSKLFNGHQKDFCPQVNLSSALAKILMSLARLNREHAVVLMSEIDFPSMGFAIKKALPASCEVRFIPKTLDITDANVWDAHMGSDIDLVFVSHAYSNTGQQAPLANILAMARQYGCLSVVDVAQSAGIIPLNLAQLQPDFLIGSSVKWLCSGPGAAYLWVNPSIIDSCQPKDVGWFSHENPFEFNIHDFRYHNSALRFWGGTPSIAPYAIAAHSIHYFADIGVEQLRKGNQLLIDIVAEALDQEFVSPREIEKRSGTLVLQFGEQQGQIMAALAKANISVDARSMGIRISPHIYNDKADIQLLLSVIKAHR | not soluble
15 | MGSDKIHHHHHHMFSSQKLKERRKKLGLSQAQTADKLGISRPSYFNWEIGKTKPNQKNLDKLAHLLKVDSAYFLSQHDIVEIYTRLNESNKTKTLKYSQYLLEQQDKERNLMKNKRYPYRVYEKLSAGTGYSYFGDGNFDTVFYDEEIDHDFASWIFGDSMEPIFLNGEVALIKQTGFDYDGAIYAIDWDGQTYIKKVYREETGLRLVSLNKKYADKFAPYDENPRIIGLIVGNFIPLEG | not soluble
16 | MGSDKIHHHHHHMFVGMDFGTTNSAVALAGADGSVEVLNFAAATGAASTLRSVLAFENARRDAQRRILPLAGHEAIEAYLHGDGDCRFLQSFKSYLTSRSFTSTAIYGAPYSLEELVALIIAQLRRTAEAAGAKVERVVAGRPVRFVAEGGEEEDAYATGRLVEAFAKAGITDVVFEYEPIAAAYYYESTLTRDQTVLVADFGGGTSDFCLIRLGPGRAGLARPEDAIIGTAGVGIAGDAFDRRIVEHGLSGHFGKYTTYVSDGKVLPMPAWVYAKLERWHHVAFLNTPSTMRLLRDLLRQVEHPDQVEQLLALIEHNLGYHLYRAVEQAKRDLSSADETVLRFDHDPVVVERRVTRAEFESWIGKELSAIESCVDGLLDGTGTALAQVDRVFLTGGSSLVPAVRAIFANRFGEDRLSAGGEFISVATGLAQRAREMG | not soluble
17 | MGSDKIHHHHHHMFVMLAMANVTTSAPRAVAPAYDPRLVRAAVAMNENDLPTAEPLLRALLKDDPFDVRAIRLFAELAGRIGRYQDAENLLRRAIELAPQFTAARANLALVLYRTNRAPEALEELAKVTADDPENVGHANLQAAAYGRIGEFDEALALYEQVLKQAAAQPRVWMSYGHMLKTVGRQADGVAAYRRAIELLPTLGEAWWSLANLKTVRFDDADIAAMEAALRVPDLAPEDQWHLDFALGKAFEDRGEAERSFRHYAAGNALRKKRMPYQAEEITAQVDRAVAAFTPATVAGLSGKGCEAGDPIFVLGMPRAGSTLVEQILASHSMVEGTSELADIGYLARTVEGYPAGLSSLQGNDLRALGEQYLARTRIQRHTDRPLFVDKMPNNWIHVPFIRAILPNAKIVDARRHPLSCCFSNFKQHFARGQGFSYSLEDMGRYYRDYVRAMAHFDKVIPGAVHRVIYERMVEDTEAEVRALLAYCGLAFEDNCLAFHRTERAVRTASSEQVRQPIFRDGTDAWKAFEPWLGELKVALGAVQDFYPEAPPFD | not soluble
